{
  "source": "paper PMC5458078",
  "about": "“Global mapping of CARM1 substrates defines enzyme specificity and substrate recognition” (Nature Communications, 2017)",
  "molecules": {"B1": {"name": "CARM1 140–608: CARM1 140–608 lacks the first 140 residues encompassing the EVH1 domain (protein)", "chain": "RTEESSAVQYFQFYGYLSQQQNMMQDYVRTGTYQRAILQNHTDFKDKIVLDVGCGSGILSFFAAQAGARKIYAVEASTMAQHAEVLVKSNNLTDRIVVIPGKVEEVSLPEQVDIIISEPMGYMLFNERMLESYLHAKKYLKPSGNMFPTIGDVHLAPFTDEQLYMEQFTKANFWYQPSFHGVDLSALRGAAVDEYFRQPVVDTFDIRILMAKSVKYTVNFLEAKEGDLHRIEIPFKFHMLHSGLVHGLAFWFDVAFIGSIMTVWLSTAPTEPLTHWYQVRCLFQSPLFAKAGDTLSGTCLLIANKRQSYDISIVAQVDQTGSKSSNLLDLKNPFFRYTGTTPSPPPGSHYTSPSENMWNTGSTYNLSSGMAVAGMPTAYDLSSVIASGSSVGHNNLIPLANTGIVNHTHSRMGSIMSTGIVQGSSGAQGSGGGSTSAHYAVNSQFTMGGPAISMASPMSIPTNTMHYGS", "modifications": "left off: FLAG, end not stated, kept", "notes": "CARM1 140–608 lacks the first 140 residues encompassing the EVH1 domain"}},
  "key": {"[1]": {"tested_on": "HEK293T CARM1 KO cells", "test": "Rescue of endogenous BAF155 and MED12 methylation, transient transfection, western blot", "assay_type": "cell-based", "conditions": "transient expression in HEK293T CARM1 KO cells", "protocol": "Next, we transiently transfected FL and the two aforementioned CARM1 truncations in HEK293T CARM1 KO cells and measured substrate methylation by western blotting with ADMA antibodies.\nCells were collected by trypsinization, washed with Dulbecco's phosphate buffer saline (Life Technologies, Carlsbad, CA) and lysed by suspension in lysis buffer (50 mM Tris-HCl pH 8.0, 150 mM NaCl, 10% glycerol, 0.5% Triton X-100 and 1 × protease inhibitor cocktail (Sigma-Aldrich)). After brief sonication followed by centrifugation, total protein was quantified using the BioRad Protein Assay (BioRad, Hercules, CA), and 20 μg protein was resolved by SDS–PAGE. Proteins were transferred to a nitrocellulose membrane for 1.5 h at 350 mA. Membranes were blocked with 5% nonfat milk at room temperature for 1 h and incubated overnight with diluted primary antibody at 4 °C. Membranes were then washed and incubated with HRP-conjugated secondary antibody for 1 h at room temperature. Signal was visualized by enhanced chemiluminescence reagents (Thermo Scientific, Rockford, IL) and X-ray film exposure followed by scanning and digitalization. Me-PABP1 and PABP1 antibodies, me-BAF155 antibody[20] and me-MED12 antibody[30] were generated previously in the Xu lab. FLAG antibody (catalogue #F7425) was purchased from Sigma and used at a dilution of 1:5,000; BAF155 antibody (sc-10756) was purchased from Santa Cruz and used at a dilution of 1:1,000; MED12 antibody (ab70842) was purchased from Abcam (Cambridge, MA) and used at 1:1,000 dilution."}, "[2]": {"tested_on": "GST fused MED12, BAF155 and PABP1 peptides", "test": "In vitro methylation of GST fused peptides by recombinant CARM1 proteins, autoradiography", "assay_type": "biochemical", "conditions": "3H-SAM, 1–4 h, 30 °C; compared with CARM1 FL and CARM1 28–608", "protocol": "The FL and N-terminal domain-deleted version of human CARM1 cDNAs, and other PRMT FL cDNAs were cloned into pFN21K Halo Tag CMV Flexi mammalian expression vector (Promega, Madison, WI) using the unique Sgfl and Pmel site[55]. To express the protein, DNA constructs were transiently transfected into HEK293T CARM1 KO cells in 15 cm dishes using transIT-LT1 reagent (Mirus Bio, Madison, WI) according to the manufacturer's protocol. Proteins were allowed to express for 48 h. Cell pellets were then collected and lysed in lysis buffer (50 mM HEPES, pH 7.5, 150 mM NaCl, 0.005% NP-40, 0.5 mM EDTA, supplemented with 1 × protease inhibitor cocktail before use). The cells were sonicated on ice using a Branson Sonifier 450 with a microtip at 35% amplitude (10 s on, 30 s off, 6 cycles). The crude lysate was cleared by centrifugation (15,000 r.p.m., 4 °C, 20 min). […] The resin was centrifuged at 3,000 r.p.m. for 5 min, and the supernatant containing the cleaved protein was collected and protein concentration was determined using the Bradford assay (Thermo Scientific, Rockford, IL). Protein purity was assessed by running SDS–PAGE and Coomassie Blue staining.\nThe DNA fragments were cloned into pGEX-2T GST expression vector (GE Healthcare, Waukesha, WI). […] Protein concentration was then determined using Bradford assay and protein purity was assessed by SDS–PAGE and Coomassie Blue staining. […]"}, "[3]": {"tested_on": "HEK293T CARM1 KO cells", "test": "Total ADMA-containing proteins co-precipitated with FLAG-tagged CARM1, western blot", "assay_type": "cell-based", "conditions": "FLAG IP probed with ADMA antibody; compared with CARM1 FL and CARM1 28–608", "from_the_text": "The structure of the N-terminal domain of CARM1 (residues 28–140) resembles those of the EVH1 domains, a subfamily of PH domains that bind proline-rich sequences. With our discovery that CARM1 substrates contain proline-rich motifs, we posited that the protein's N-terminal domain may be required for substrate recognition. To test this hypothesis, we generated three CARM1 constructs: one full-length (CARM1 FL) and two N-terminal truncations CARM1 28–608 and CARM1 140–608 (Fig. 3a). […] We transiently transfected the three FLAG-tagged CARM1 fusion constructs in HEK293T CARM1 KO cells. CARM1 was immunoprecipitated from all three cell lines using anti-FLAG M2 resin, and four known CARM1 substrates/interactors (that is, BAF155 (ref. [20]), MED12 (ref. [30]), PABP1 (ref. [36]) and NCOA3 (ref. [19])) and newly identified TET2 were detected by western blotting. […]\nCells were collected by trypsinization, washed with Dulbecco's phosphate buffer saline (Life Technologies, Carlsbad, CA) and lysed by suspension in lysis buffer (50 mM Tris-HCl pH 8.0, 150 mM NaCl, 10% glycerol, 0.5% Triton X-100 and 1 × protease inhibitor cocktail (Sigma-Aldrich)). After brief sonication followed by centrifugation, total protein was quantified using the BioRad Protein Assay (BioRad, Hercules, CA), and 20 μg protein was resolved by SDS–PAGE. […]"}},
  "data": [
    {"molecule": "B1", "values": [
      {"measurement": "Methylation of endogenous BAF155 and MED12", "setting": "[1]", "result": "failed to restore endogenous protein methylation"},
      {"measurement": "Methylation of GST fused MED12, BAF155 and PABP1 peptides and other protein substrates", "setting": "[2]", "result": "greatly reduced ability"},
      {"measurement": "Abundance of CARM1-interacting (ADMA-containing) proteins", "setting": "[3]", "result": "global decrease in abundance of CARM1-interacting proteins"}
    ]}
  ]
}
